# Laboratory results published in PMC12213002.
# Key:
# [1] = endogenous DDX3X western blot, HEK293T
# [2] = MG132 rescue of FLAG-DDX3X levels, P2A-GFP normalised; conditions: glycan lost; control: FLAG-DDX3X WT
# [3] = FLAG western blot, transfected HEK293T, normalised to β-tubulin; conditions: glycan lost; control: FLAG-DDX3X WT
# [4] = cycloheximide chase, FLAG western blot, HEK293T; conditions: glycan lost; control: FLAG-DDX3X WT
# [5] = total DDX3X western blot, siRNA knock-down/rescue; conditions: glycan lost; control: siDDX3X + SIR FLAG-DDX3X WT
protein,measurement,setting,value
DDX3X: OGT siRNA (protein) parent chain: MSHVAVENALGLDQQFAGLDLNSSDNQSGGSTASKGRYIPPHLRNREATKGFYDKDSSGWSSSKDKDAYSSFGSRSDSRGKSSFFSDRGSGSRGRFDDRGRSDYDGIGSRGDRSGFGKFERGGNSRWCDKSDEDDWSKPLPPSERLEQELFSGGNTGINFEKYDDIPVEATGNNCPPHIESFSDVEMGEIIMGNIELTRYTRPTPVQKHAIPIIKEKRDLMACAQTGSGKTAAFLLPILSQIYSDGPGEALRAMKENGRYGRRKQYPISLVLAPTRELAVQIYEEARKFSYRSRVRPCVVYGGADIGQQIRDLERGCHLLVATPGRLVDMMERGKIGLDFCKYLVLDEADRMLDMGFEPQIRRIVEQDTMPPKGVRHTMMFSATFPKEIQMLARDFLDEYIFLAVGRVGSTSENITQKVVWVEESDKRSFLLDLLNATGKDSLTLVFVETKKGADSLEDFLYHEGYACTSIHGDRSQRDREEALHQFRSGKSPILVATAVAARGLDISNVKHVINFDLPSDIEEYVHRIGRTGRVGNLGLATSFFNERNINITKDLLDLLVEAKQEVPSWLENMAYEHHYKGSSRGRSKSSRFSGGFGARDYRQSSGASSSSFSSSRASSSRSGGGGHGSSRGFGGGGYGGFYNSDGYGGNYNSQGVDWWGN,expression_or_secretion,"[1]; glycan lost, control: siRNA against firefly luciferase",decreases
DDX3X: FLAG-OGT WT over-expression (protein) parent chain: MSHVAVENALGLDQQFAGLDLNSSDNQSGGSTASKGRYIPPHLRNREATKGFYDKDSSGWSSSKDKDAYSSFGSRSDSRGKSSFFSDRGSGSRGRFDDRGRSDYDGIGSRGDRSGFGKFERGGNSRWCDKSDEDDWSKPLPPSERLEQELFSGGNTGINFEKYDDIPVEATGNNCPPHIESFSDVEMGEIIMGNIELTRYTRPTPVQKHAIPIIKEKRDLMACAQTGSGKTAAFLLPILSQIYSDGPGEALRAMKENGRYGRRKQYPISLVLAPTRELAVQIYEEARKFSYRSRVRPCVVYGGADIGQQIRDLERGCHLLVATPGRLVDMMERGKIGLDFCKYLVLDEADRMLDMGFEPQIRRIVEQDTMPPKGVRHTMMFSATFPKEIQMLARDFLDEYIFLAVGRVGSTSENITQKVVWVEESDKRSFLLDLLNATGKDSLTLVFVETKKGADSLEDFLYHEGYACTSIHGDRSQRDREEALHQFRSGKSPILVATAVAARGLDISNVKHVINFDLPSDIEEYVHRIGRTGRVGNLGLATSFFNERNINITKDLLDLLVEAKQEVPSWLENMAYEHHYKGSSRGRSKSSRFSGGFGARDYRQSSGASSSSFSSSRASSSRSGGGGHGSSRGFGGGGYGGFYNSDGYGGNYNSQGVDWWGN,expression_or_secretion,"[1]; glycan gained, control: FLAG-empty vector",increases
DDX3X: Ser584Ala (protein) parent chain: MSHVAVENALGLDQQFAGLDLNSSDNQSGGSTASKGRYIPPHLRNREATKGFYDKDSSGWSSSKDKDAYSSFGSRSDSRGKSSFFSDRGSGSRGRFDDRGRSDYDGIGSRGDRSGFGKFERGGNSRWCDKSDEDDWSKPLPPSERLEQELFSGGNTGINFEKYDDIPVEATGNNCPPHIESFSDVEMGEIIMGNIELTRYTRPTPVQKHAIPIIKEKRDLMACAQTGSGKTAAFLLPILSQIYSDGPGEALRAMKENGRYGRRKQYPISLVLAPTRELAVQIYEEARKFSYRSRVRPCVVYGGADIGQQIRDLERGCHLLVATPGRLVDMMERGKIGLDFCKYLVLDEADRMLDMGFEPQIRRIVEQDTMPPKGVRHTMMFSATFPKEIQMLARDFLDEYIFLAVGRVGSTSENITQKVVWVEESDKRSFLLDLLNATGKDSLTLVFVETKKGADSLEDFLYHEGYACTSIHGDRSQRDREEALHQFRSGKSPILVATAVAARGLDISNVKHVINFDLPSDIEEYVHRIGRTGRVGNLGLATSFFNERNINITKDLLDLLVEAKQEVPSWLENMAYEHHYKGSSRGRSKSSRFSGGFGARDYRQSSGASSSSFSSSRASSSRSGGGGHGSSRGFGGGGYGGFYNSDGYGGNYNSQGVDWWGN,"degradation_or_half_life, other: proteasome-dependent loss of protein",[2],decreases
same,"expression_or_secretion, percent_of_wt",[3],decreases
same,"degradation_or_half_life, other: turnover rate",[4],decreases
DDX3X: SIR FLAG-DDX3X Ser584Ala (protein) parent chain: MSHVAVENALGLDQQFAGLDLNSSDNQSGGSTASKGRYIPPHLRNREATKGFYDKDSSGWSSSKDKDAYSSFGSRSDSRGKSSFFSDRGSGSRGRFDDRGRSDYDGIGSRGDRSGFGKFERGGNSRWCDKSDEDDWSKPLPPSERLEQELFSGGNTGINFEKYDDIPVEATGNNCPPHIESFSDVEMGEIIMGNIELTRYTRPTPVQKHAIPIIKEKRDLMACAQTGSGKTAAFLLPILSQIYSDGPGEALRAMKENGRYGRRKQYPISLVLAPTRELAVQIYEEARKFSYRSRVRPCVVYGGADIGQQIRDLERGCHLLVATPGRLVDMMERGKIGLDFCKYLVLDEADRMLDMGFEPQIRRIVEQDTMPPKGVRHTMMFSATFPKEIQMLARDFLDEYIFLAVGRVGSTSENITQKVVWVEESDKRSFLLDLLNATGKDSLTLVFVETKKGADSLEDFLYHEGYACTSIHGDRSQRDREEALHQFRSGKSPILVATAVAARGLDISNVKHVINFDLPSDIEEYVHRIGRTGRVGNLGLATSFFNERNINITKDLLDLLVEAKQEVPSWLENMAYEHHYKGSSRGRSKSSRFSGGFGARDYRQSSGASSSSFSSSRASSSRSGGGGHGSSRGFGGGGYGGFYNSDGYGGNYNSQGVDWWGN,expression_or_secretion,[5],decreases
